The target of test [1] is Human Siglec-9-Fc (recombinant human Siglec-9 extracellular domain Q18-G348 fused to human IgG1 Fc) (human). As to the kind of experiment: BLI binning, hSiglec-9-Fc on AHC sensor; competitor bound first (row): 13H10 (printed 13H110).
Test [2] has the same target. Briefly: BLI binning, hSiglec-9-Fc on AHC sensor; competitor bound first (row): 9C15.
Test [3] has the same target. Briefly: BLI binning, hSiglec-9-Fc on AHC sensor; competitor bound first (row): 13J19.
The target is the same in test [4]. As to the kind of experiment: BLI binning, hSiglec-9-Fc on AHC sensor; competitor bound first (row): 3L02 (self).
Test [5] has the same target. Briefly: BLI binning, hSiglec-9-Fc on AHC sensor; competitor bound first (row): 12P18.
Test [6] shares this target. As to the kind of experiment: BLI binning, hSiglec-9-Fc on AHC sensor; competitor bound first (row): 12G23.
For test [7] the target is unchanged. As to the kind of experiment: BLI binning, hSiglec-9-Fc on AHC sensor; competitor bound first (row): 2F15.
The target is the same in test [8]. Briefly: BLI binning, hSiglec-9-Fc on AHC sensor; competitor bound first (row): 9D21.
Test [9] shares this target. Briefly: BLI binning, hSiglec-9-Fc on AHC sensor; competitor bound first (row): 13O18.
For test [10] the target is unchanged. Briefly: BLI binning, hSiglec-9-Fc on AHC sensor; competitor bound first (row): 12L19.

Sequence of Human Siglec-9-Fc (recombinant human Siglec-9 extracellular domain Q18-G348 fused to human IgG1 Fc) (human) (chain, as listed by the source limits assumed): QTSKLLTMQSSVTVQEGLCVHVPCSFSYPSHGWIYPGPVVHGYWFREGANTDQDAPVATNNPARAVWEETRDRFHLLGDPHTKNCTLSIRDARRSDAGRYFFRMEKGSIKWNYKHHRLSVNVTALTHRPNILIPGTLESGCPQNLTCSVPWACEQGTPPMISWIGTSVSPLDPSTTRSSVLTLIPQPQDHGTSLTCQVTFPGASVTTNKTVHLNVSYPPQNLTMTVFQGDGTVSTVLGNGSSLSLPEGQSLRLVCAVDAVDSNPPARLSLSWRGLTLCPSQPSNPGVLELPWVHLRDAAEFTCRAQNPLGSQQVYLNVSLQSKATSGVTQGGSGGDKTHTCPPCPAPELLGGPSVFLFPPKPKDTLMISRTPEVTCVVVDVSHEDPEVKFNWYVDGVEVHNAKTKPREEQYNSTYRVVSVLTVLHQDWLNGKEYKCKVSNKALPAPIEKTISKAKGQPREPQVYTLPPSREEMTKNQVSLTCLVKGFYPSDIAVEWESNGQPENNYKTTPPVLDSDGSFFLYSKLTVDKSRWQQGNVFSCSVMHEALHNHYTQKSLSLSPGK

B1: 3L02 (antibody, V domains shown)
VH: DVQLQESGPGMVKPSQSLSLTCTVTGYSITSGYDWHWIRHFPGNKLEWMGYISYSAGTNYNPSLKSRISITHDTSKNHFFLKLNSVTTEDTATYYCAREGLTAYWYFDVWGTGTTVTVSS
VL: DIVMTQSQKFMSTSVGDRVSVTCKASQTVGTNVAWYQQKPGQSPKPLIYSASYRYSGVPDRFTGSGSGTDFTLTISNVQSEDLAEYFCQQYDSFPLTFGSGTKLEIK
Turning to B1, the maximum binding nm shift is -0.064 nm in test [1]; 0.14 nm in test [2]; 0.085 nm in [3]; 0 nm in test [4]; 0.214 nm in [5]; 0.031 nm in test [6]. Moreover, the maximum binding nm shift in test [7] was 0.099 nm; in test [8], 0.188 nm; in test [9], 0.091 nm; in test [10] it was -0.053 nm.

Values taken from patent US20220396627A1.
